The results in this text go back to paper PMC4794675 (Journal of Virology, 2016).

Assay [1] concerns the target T1, BSA2 (glutaraldehyde-self-conjugated BSA) (Bos taurus, UniProt P02769).
T1 construct: bovine serum albumin; also called BSA2 control; source: BSA self-conjugated with 0.2% glutaraldehyde, dialysed
Kind of assay: ELISA. Conditions: both partners purified.

Assay [2] has as its target T2, Soluble E2 (sE2), amino acids 384 to 661 of HCV genotype 1a strain H77 (Hepatitis C virus genotype 1a, H77, UniProt P27958).
T2 construct: source: High Five insect cells, recombinant baculovirus, secreted, purified (Ni-nitrilotriacetic acid chromatography)
Kind of assay: SPR; Biacore 3000, sE2 immobilised on CM5 by amine coupling; MAbs or Fabs injected; HBS pH 7.2, 25°C, 20 μl/min; 1:1 Langmuir fit. Conditions: both partners purified.

For assay [3], the target named is T3, full-length (FL) E2 protein (Hepatitis C virus; strain of this …).
T3 construct: source: HEK293T, transfected, in clarified lysate
Kind of assay: ELISA. The settings on record: one partner purified.

The target in assay [4] is T4, sE2 expressed in mammalian cells (HEK293T lysate) (Hepatitis C virus; strain of this …).
T4 construct: also called mammalian cell-expressed sE2; source: HEK293T, transfected, in clarified lysate
Kind of assay: ELISA. Conditions: one partner purified. A general note: ELISA stands for enzyme-linked immunosorbent assay.

Assay [5] deals with T5, E1E2 heterodimer (E1E2 glycoprotein) (Hepatitis C virus; strain of this …).
T5 construct: source: HEK293T, transfected, in clarified lysate
The assay can be described thus: ELISA. Conditions: one partner purified.

Usually Kd stands for a measure of binding affinity in units of concentration. Read a low Kd as higher affinity. What is called koff is the rate constant with which the complex falls apart. A higher koff goes with fast dissociation. As a reminder, the kon is the rate constant with which the complex forms. A low value points to slower complex formation.

T2 sequence (P27958 384-661): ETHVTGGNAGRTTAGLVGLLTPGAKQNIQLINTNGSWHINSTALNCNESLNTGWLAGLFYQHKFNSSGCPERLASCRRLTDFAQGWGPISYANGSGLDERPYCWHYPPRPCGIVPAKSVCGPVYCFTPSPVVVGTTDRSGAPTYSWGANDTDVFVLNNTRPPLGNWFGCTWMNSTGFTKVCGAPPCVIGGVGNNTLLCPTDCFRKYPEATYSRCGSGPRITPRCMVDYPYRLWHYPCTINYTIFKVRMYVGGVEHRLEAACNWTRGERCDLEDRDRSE
T1 sequence (P02769 25-607): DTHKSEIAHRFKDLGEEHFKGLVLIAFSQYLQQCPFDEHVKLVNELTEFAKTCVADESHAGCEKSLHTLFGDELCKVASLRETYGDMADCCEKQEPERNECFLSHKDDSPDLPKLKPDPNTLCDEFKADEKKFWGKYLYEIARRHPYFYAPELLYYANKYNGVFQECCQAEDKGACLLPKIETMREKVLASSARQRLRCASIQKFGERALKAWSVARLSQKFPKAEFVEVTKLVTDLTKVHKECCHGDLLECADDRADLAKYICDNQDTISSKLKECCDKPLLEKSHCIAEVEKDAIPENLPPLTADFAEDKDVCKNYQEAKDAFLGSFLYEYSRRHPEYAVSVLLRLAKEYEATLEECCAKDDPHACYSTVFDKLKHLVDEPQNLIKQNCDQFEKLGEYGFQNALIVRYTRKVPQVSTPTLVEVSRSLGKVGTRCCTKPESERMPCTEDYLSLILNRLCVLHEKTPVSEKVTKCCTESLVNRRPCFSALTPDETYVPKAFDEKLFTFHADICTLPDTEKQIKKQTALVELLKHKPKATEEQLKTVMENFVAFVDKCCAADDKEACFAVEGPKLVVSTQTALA
T3 sequence (P27958 384-746): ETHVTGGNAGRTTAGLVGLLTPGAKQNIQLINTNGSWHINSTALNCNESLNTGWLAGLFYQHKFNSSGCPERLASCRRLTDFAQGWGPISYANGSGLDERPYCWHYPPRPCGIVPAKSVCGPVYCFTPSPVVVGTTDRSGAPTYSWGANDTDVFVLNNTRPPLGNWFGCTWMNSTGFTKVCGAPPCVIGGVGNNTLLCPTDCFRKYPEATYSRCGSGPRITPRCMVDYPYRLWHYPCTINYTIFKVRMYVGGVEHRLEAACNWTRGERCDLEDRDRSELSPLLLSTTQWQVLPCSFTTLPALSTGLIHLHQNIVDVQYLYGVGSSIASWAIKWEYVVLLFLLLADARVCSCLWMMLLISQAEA

B1: MAb C2 (mouse monoclonal antibody against C-epitope I) (antibody, V domains shown)
VH: EVQLQQPGAELVRPGGSVKLSCKASGYSFTTYWMNWVKQRPGQGLEWIGMIQPSDSETRLNQKFKDKATLTLDRSSSTVYMQLSSPTSDDSAVYYCARTGRGDAWLTYWGQGTSVTVSS
VL: NIVLTQSPVSLAVSLGQRATISCRASKSVSTSGYSYMHWYQQKPGQPPRLLLYLGSNLESGVPARFSGSGSGTDFTLNIHPVEEEDAATYYCQHIRELTRSFGGGTKLEIK
notes: source: also used as hybridoma supernatant
As to B1, the binding result in assay [1] is “no binding”. In assay [2], this molecule had a dissociation constant (Kd) of 49.8 nM, a koff of 0.000848 s⁻¹ and a kon of 18800 M⁻¹ s⁻¹.

B2: Fab fragment of the C2 antibody (Fab, V domains shown)
VH: EVQLQQPGAELVRPGGSVKLSCKASGYSFTTYWMNWVKQRPGQGLEWIGMIQPSDSETRLNQKFKDKATLTLDRSSSTVYMQLSSPTSDDSAVYYCARTGRGDAWLTYWGQGTSVTVSS
VL: NIVLTQSPVSLAVSLGQRATISCRASKSVSTSGYSYMHWYQQKPGQPPRLLLYLGSNLESGVPARFSGSGSGTDFTLNIHPVEEEDAATYYCQHIRELTRSFGGGTKLEIK
notes: source: papain digestion of purified IgG; Fc removed on protein G, gel filtration
In assay [2], B2 gave a Kd of 301 nM, a koff of 0.00463 s⁻¹ and an on-rate constant (kon) of 12800 M⁻¹ s⁻¹.

B3: MAb AP33 (broadly neutralizing mouse monoclonal antibody) (antibody, V domains shown)
VH: EVQLQESGPSLVKPSQTLSLTCSVTGDSITSGYWNWIRKFPGNKLEYMGYISYSGSTYYNLSLRSRISITRDTSKNQYYLQLNSVTTEDTATYYCALITTTTYAMDYWGQGTSVTVSS
VL: NIVLTQSPVSLAVSLGQRATISCRASESVDGYGNSFLHWFQQKPGQPPKLLIYLASNLNSGVPARFSGSGSRTDFTLTIDPVEADDAATYYCQQNNVDPWTFGGGTKLEIK
In the case of B3, the binding result in assay [3] is listed as “binds”. For the same molecule, the binding result in assay [4] is “binds”. In assay [5], the binding result is given as “binds”. In assay [2], this molecule displayed a Kd of 0.142 nM, a koff of 6.4e-05 s⁻¹ and a kon of 649000 M⁻¹ s⁻¹.

B4: Fab fragment of AP33 (Fab, V domains shown)
VH: EVQLQESGPSLVKPSQTLSLTCSVTGDSITSGYWNWIRKFPGNKLEYMGYISYSGSTYYNLSLRSRISITRDTSKNQYYLQLNSVTTEDTATYYCALITTTTYAMDYWGQGTSVTVSS
VL: NIVLTQSPVSLAVSLGQRATISCRASESVDGYGNSFLHWFQQKPGQPPKLLIYLASNLNSGVPARFSGSGSRTDFTLTIDPVEADDAATYYCQQNNVDPWTFGGGTKLEIK
notes: as for B2
In assay [2], B4 registered a Kd of 0.72 nM, a dissociation rate constant (koff) of 0.000147 s⁻¹ and an association rate constant (kon) of 230000 M⁻¹ s⁻¹.
